US20200270358A1 (BEIJING GEFUCURE BIOTECHNOLOGY, published 2020)

Molecular target: T1, CD20 antigen on the surface of Daudi and Raji B lymphoma cells (human, UniProt P11836 1-297)
T1 sequence (looked up): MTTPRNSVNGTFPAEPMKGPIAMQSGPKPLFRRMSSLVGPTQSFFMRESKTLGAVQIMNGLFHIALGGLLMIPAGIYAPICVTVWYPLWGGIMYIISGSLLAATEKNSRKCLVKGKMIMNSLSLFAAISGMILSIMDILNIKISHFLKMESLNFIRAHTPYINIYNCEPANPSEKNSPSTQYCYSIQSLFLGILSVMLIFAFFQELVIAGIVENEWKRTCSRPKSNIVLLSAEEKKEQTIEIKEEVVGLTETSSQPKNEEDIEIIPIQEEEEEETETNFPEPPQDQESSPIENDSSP
Assay: cell-based or functional assay

EC50 (read off the curve): ADCC, percentage of cell lysis (LDH release), NK92/CD16a (158 V/V) effector cells, CD20-bearing B lymphoma target cells: ~0.5 ng/mL
B1: recombinant afucosylated anti-human CD20 monoclonal antibody prepared in Example 2 (expressed in the milk of a transgenic cow) (antibody, human IgG1, kappa)
heavy: not shown
light: QIVLSQSPAILSASPGEKVTMTCRASSSVSYIHWFQQKPGSSPKPWIYATSNLASGVPVRFSGSGSGTSYSLTISRVEAEDAATYYCQQWTSNPPTFGGGTKLEIKRTVAAPSVFIFPPSDEQLKSGTASVVCLLNNFYPREAKVQWKVDNALQSGNSQESVTEQDSKDSTYSLSSTLTLSKADYEKHKVYACEVTHQGLSSPVTKSFNRGEC
modifications: N-linked sugar chain at Asn-320, mainly afucosylated glycoform (80% to 100%), of which the G2 glycoform is 30% to 100%
